Laboratory results reported in patent US20180271975A1 (MODERNATX, published 2018).

Biological target: T1, hCMV glycoprotein H (gH) (human cytomegalovirus (Human …, UniProt Q6SW67 24-742))
T1 construct: also called envelope glycoprotein H
T1 sequence: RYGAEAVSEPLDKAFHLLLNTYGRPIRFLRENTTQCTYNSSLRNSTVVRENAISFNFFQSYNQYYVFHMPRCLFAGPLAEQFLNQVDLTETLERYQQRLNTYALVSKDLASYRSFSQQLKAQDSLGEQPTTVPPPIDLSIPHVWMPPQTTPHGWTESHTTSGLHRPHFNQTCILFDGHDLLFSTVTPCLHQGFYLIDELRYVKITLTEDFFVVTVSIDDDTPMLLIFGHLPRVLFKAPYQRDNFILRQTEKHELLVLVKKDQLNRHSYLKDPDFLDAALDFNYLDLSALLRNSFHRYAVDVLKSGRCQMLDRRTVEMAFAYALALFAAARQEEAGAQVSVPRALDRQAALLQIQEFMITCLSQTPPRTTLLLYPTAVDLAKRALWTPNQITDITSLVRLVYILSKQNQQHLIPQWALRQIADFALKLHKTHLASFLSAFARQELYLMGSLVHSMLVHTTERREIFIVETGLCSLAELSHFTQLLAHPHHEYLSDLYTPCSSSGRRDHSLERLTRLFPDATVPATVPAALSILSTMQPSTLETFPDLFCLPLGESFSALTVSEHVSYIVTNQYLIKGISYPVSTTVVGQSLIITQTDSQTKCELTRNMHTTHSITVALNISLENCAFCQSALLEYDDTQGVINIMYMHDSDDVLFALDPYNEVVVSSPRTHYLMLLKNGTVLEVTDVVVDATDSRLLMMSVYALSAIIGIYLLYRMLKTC
Experiment: co-expression in HeLa cells, surface gH read by FACS with 3G16

B1: hCMV glycoprotein L (gL) (other)
chain: AAVSVAPTAAEKVPAECPELTRRCLLGEVFEGDKYESWLRPLVNVTGRDGPLSQLIRYRPVTPEAANSVLLDEAFLDTLALLYNNPDQLRALLTLLSSDTAPRWMTVMRGYSECGDGSPAVYTCVDDLCRGYDLTRLSYGRSIFTEHVLGFELVPPSLFNVVVAIRNEATRTNRAVRLPVSTAAAPEGITLFYGLYNAVKEFCLRHQLDPPLLRHLDKYYAGLPPELKQTRVNLPAHSRYGPQAVDAR
B1: binds.
